Experimental findings from patent publication US20220048996A1 are described below.

The target of test [1] is human OX40 expressed on DO11.10 cells (DO11.10-hOX40) (human) (UniProt P43489). In words: cell-based or functional assay.
Test [2] concerns the target cynomolgus OX40 expressed on DO11.10 cells (DO11.10-cOX40) (cynomolgus). Briefly: flow cytometry on DO11.10 cells expressing the target. On the technique in general: Flow cytometry measures light scatter and fluorescence of single cells or particles in a stream.
In test [3] the target is human OX40 expressed on DO11.10 cells (DO11.10-hOX40) (human) (UniProt P43489). Described as above.
Test [4] concerns the target hFcγR1 (R&D Systems 1257-FC-050/CF) (human) (UniProt P12314). Briefly: SPR, antibody 100 nM on OX40-his chip co-injected with FcγR 500 nM. In general terms: In SPR one partner is held on a chip, and binding of the other changes the refractive index at the surface.
Test [5] addresses hFcγR2a (R&D Systems 1330-CD-050/CF) (human) (UniProt P12318). Described as above.
Test [6] deals with hFcγR2b (R&D Systems 1460-CD-050/CF) (human) (UniProt P31994). The description is as above.
The target in test [7] is hFcγR3a (R&D Systems 4325-FC-050/CF) (human) (UniProt P08637). The test is described as above.
Another test has as its target hOX40-mFc (human). In words: SPR, antibody captured via anti-human Fab, dimeric antigen flowed, 1:1 fit.
Test [8] deals with mouse CD137 expressed on DO11.10 cells (DO11.10-mCD137) (mouse) (UniProt P20334). Briefly: flow cytometry on DO11.10 cells expressing the target.
The target of test [9] is cynomolgus OX40 expressed on DO11.10 cells (DO11.10-cOX40) (cynomolgus). Briefly: flow cytometry on DO11.10-cOX40.
Test [10] deals with human OX40 expressed on DO11.10 cells (DO11.10-hOX40) (human) (UniProt P43489). Briefly: flow cytometry on DO11.10-hOX40.
The target of test [11] is mouse CD137 expressed on DO11.10 cells (DO11.10-mCD137) (mouse) (UniProt P20334). In words: cell-based or functional assay.
Test [12] addresses hFcγR1 (R&D Systems 1257-FC-050/CF) (human) (UniProt P12314). Briefly: SPR, antibody 100 nM on CD137-his chip co-injected with FcγR 500 nM.
Test [13] concerns the target hFcγR2a (R&D Systems 1330-CD-050/CF) (human) (UniProt P12318). Described as above.
For test [14], the target named is hFcγR2b (R&D Systems 1460-CD-050/CF) (human) (UniProt P31994). Described as above.
For test [15], the target named is hFcγR3a (R&D Systems 4325-FC-050/CF) (human) (UniProt P08637). The test is described as above.

Sequence of hFcγR2b (R&D Systems 1460-CD-050/CF) (human) (P31994 46-217 limits assumed): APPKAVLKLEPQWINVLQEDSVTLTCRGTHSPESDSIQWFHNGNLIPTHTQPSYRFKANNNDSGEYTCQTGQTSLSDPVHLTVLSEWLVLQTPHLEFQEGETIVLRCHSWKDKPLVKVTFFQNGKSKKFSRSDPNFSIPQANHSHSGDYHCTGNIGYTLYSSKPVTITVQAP
Sequence of hFcγR2a (R&D Systems 1330-CD-050/CF) (human) (P12318 36-218 limits assumed): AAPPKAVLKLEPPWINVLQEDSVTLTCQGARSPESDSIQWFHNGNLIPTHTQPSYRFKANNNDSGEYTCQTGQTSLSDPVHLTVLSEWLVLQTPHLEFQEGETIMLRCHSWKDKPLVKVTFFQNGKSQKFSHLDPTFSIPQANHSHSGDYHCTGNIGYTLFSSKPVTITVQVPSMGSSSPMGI
Sequence of hFcγR3a (R&D Systems 4325-FC-050/CF) (human) (P08637 17-208 limits assumed): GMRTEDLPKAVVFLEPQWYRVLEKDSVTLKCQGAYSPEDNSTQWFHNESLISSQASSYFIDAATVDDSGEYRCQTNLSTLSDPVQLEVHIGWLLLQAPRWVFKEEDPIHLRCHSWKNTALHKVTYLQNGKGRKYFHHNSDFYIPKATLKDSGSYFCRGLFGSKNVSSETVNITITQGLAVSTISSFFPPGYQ
Sequence of mouse CD137 expressed on DO11.10 cells (DO11.10-mCD137) (mouse) (P20334 24-256): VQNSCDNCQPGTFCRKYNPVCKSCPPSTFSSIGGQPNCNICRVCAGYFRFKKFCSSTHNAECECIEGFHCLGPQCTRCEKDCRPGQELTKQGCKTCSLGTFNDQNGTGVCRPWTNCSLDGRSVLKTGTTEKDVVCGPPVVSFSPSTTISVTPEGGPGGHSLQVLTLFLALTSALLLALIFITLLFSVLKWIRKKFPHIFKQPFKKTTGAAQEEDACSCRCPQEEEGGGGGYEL
Sequence of hFcγR1 (R&D Systems 1257-FC-050/CF) (human) (P12314 16-288 limits assumed): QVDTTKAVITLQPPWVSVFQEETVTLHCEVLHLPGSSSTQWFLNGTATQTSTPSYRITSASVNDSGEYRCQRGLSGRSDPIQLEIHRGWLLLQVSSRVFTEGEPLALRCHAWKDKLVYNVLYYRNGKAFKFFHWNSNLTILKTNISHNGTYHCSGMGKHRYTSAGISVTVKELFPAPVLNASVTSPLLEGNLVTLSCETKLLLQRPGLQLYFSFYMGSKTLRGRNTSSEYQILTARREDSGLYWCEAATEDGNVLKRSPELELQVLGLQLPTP
Sequence of human OX40 expressed on DO11.10 cells (DO11.10-hOX40) (human) (P43489 29-277): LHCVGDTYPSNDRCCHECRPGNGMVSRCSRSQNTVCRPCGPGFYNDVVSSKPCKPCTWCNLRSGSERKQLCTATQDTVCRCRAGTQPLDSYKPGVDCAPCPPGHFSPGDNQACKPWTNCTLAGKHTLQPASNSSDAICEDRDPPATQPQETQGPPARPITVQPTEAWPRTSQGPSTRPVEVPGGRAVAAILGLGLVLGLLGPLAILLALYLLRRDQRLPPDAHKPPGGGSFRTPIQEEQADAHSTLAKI
Sequence of cynomolgus OX40 expressed on DO11.10 cells (DO11.10-cOX40) (cynomolgus) (P43489 other isoform, or with tags, fused parts or gaps): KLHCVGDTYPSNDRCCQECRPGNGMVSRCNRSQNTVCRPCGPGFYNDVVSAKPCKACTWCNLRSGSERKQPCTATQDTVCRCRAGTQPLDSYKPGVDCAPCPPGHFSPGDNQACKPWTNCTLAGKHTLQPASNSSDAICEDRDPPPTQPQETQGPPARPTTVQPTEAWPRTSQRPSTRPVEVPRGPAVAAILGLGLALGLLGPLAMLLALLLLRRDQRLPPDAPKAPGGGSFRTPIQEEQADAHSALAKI
Sequence of hOX40-mFc (human) (chain, as listed by the source limits assumed): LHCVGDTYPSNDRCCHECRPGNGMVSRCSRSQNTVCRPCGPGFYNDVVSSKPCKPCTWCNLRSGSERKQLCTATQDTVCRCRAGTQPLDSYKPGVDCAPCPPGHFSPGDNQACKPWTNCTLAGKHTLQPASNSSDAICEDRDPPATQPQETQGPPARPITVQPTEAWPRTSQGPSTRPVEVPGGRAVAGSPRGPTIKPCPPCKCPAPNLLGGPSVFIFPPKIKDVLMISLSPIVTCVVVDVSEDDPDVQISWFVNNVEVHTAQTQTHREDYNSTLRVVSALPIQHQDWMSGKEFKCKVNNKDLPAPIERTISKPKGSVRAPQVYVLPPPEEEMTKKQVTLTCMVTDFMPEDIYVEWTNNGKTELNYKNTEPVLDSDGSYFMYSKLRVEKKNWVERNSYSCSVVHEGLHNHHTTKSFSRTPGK

With G1/11D4 (antibody), in test [1], the SEA assay (PBMC), hIL-2 max response, crosslinked was found to be 6610 pg/mL; the SEA assay (PBMC), hIL-2 release EC50, crosslinked is 130 pM; the pan-T cell activation assay, hIL-2 max response, crosslinked was determined as 6380 pg/mL; the pan-T cell activation assay, hIL-2 release EC50, crosslinked stood at 51.3 pM. The EC50 (commonly the midpoint of the concentration-response curve) in test [2] came to 94.1 pM. Moreover, the EC50 in test [3] was found to be 125 pM. In [4], this substance had a binding response at end of association phase of FcγR of 370 RU and a decrease of binding response at end of dissociation phase of FcγR of 46.4 RU. This substance also gave a binding response at end of association phase of FcγR in test [5] of 123 RU. Besides, the binding response at end of association phase of FcγR in test [6] was found to be 89.7 RU. Further, in [7], the binding response at end of association phase of FcγR was 143 RU. Also, the Kd (in general, the concentration at which binding is half-saturated) with hOX40-mFc (human) is 33.7 pM.

For the substance G1/Lob12.3 (antibody), in test [8], the EC50 is 121 pM.

In test [1], G1AA/11D4 (antibody) came in with a CD4+ T cell activation assay, hIL-2 max response, crosslinked of 8820 pg/mL; a CD4+ T cell activation assay, hIL-2 release EC50, crosslinked of 81.3 pM; a CD8+ T cell activation assay, hIL-2 max response, crosslinked of 388 pg/mL; a CD8+ T cell activation assay, hIL-2 release EC50, crosslinked of 99.6 pM. In test [1], this substance yielded an SEA assay (PBMC), hIL-2 max response, crosslinked of 4270 pg/mL; an SEA assay (PBMC), hIL-2 release EC50, crosslinked of 71.6 pM; a pan-T cell activation assay, hIL-2 max response, crosslinked of 4130 pg/mL; a pan-T cell activation assay, hIL-2 release EC50, crosslinked of 130 pM. In [9], this substance came in with an EC50 of 213 pM. Further, in test [10], the EC50 turned out to be 814 pM. Also, in [4], the binding response at end of association phase of FcγR was found to be 292 RU and the decrease of binding response at end of dissociation phase of FcγR was found to be 203 RU. In test [5], the binding response at end of association phase of FcγR is 64.5 RU. This substance also had a binding response at end of association phase of FcγR in test [6] of 60.9 RU. The same substance returned a binding response at end of association phase of FcγR in test [7] of 67.3 RU.

In test [11], G1AA/Lob12.3 (antibody) came in with a mouse pan-T cell activation assay, mIL-2 max response, crosslinked of 374 pg/mL and a mouse pan-T cell activation assay, mIL-2 release EC50, crosslinked of 1180 pM.

With G4/20H4.9 (antibody), the binding response at end of association phase of FcγR in test [12] is 693 RU; in test [13] it was 156 RU; in test [14] it was 164 RU; in [15], 113 RU. Besides, the decrease of binding response at end of dissociation phase of FcγR in test [12] was found to be 57.1 RU.
